Measured values: patent US12630600B2 (MEDIMMUNE LIMITED, priority 2022, dated 2026)
Starred links: 1 amine or outer side, 2 acyl side, 3 side chain; linkers in the order of their positions; H or OH if unused. Non-standard residues stand in square brackets, D forms with d. Groups on a side chain read outwards from the residue. Primed or numbered codes have the meaning given here. No end group written: not given here. *: point of attachment. C18 diacid = O=C(O)CCCCCCCCCCCCCCCCC(=O)*; Dip = N[C@H](C(=O)O)C(c1ccccc1)c1ccccc1; Heptadecanoyl = CCCCCCCCCCCCCCCCC(=O)*; γGlu = O=C(O)[C@H](CCC(=O)[*:2])N[*:1]; Stearoyl = CCCCCCCCCCCCCCCCCC(=O)*; Palmitoyl = CCCCCCCCCCCCCCCC(=O)*; αMeF = C[C@](N)(Cc1ccccc1)C(=O)O; Myristoyl = CCCCCCCCCCCCCC(=O)*; (PEG)2 = polyethylene glycol 2; PEG2′ = polyethylene glycol 2; PEG4′ = polyethylene glycol; Dodecyl = CCCCCCCCCCCC*; PEG2 = NCCOCCOCCC(=O)O; AEEA = NCCOCCOCC(=O)O; Aib = CC(C)(N)C(=O)O

B1: Peptide 13 (peptide)
peptide: H[Aib]HGS[αMeF]TSDVSK[αMeF]LDSK([AEEA-AEEA-γGlu-C18 diacid])AARD[αMeF]VQ[Aib]IANT-NH2
modifications: N-terminus assumed
SMILES: CC[C@H](C)[C@H](NC(=O)C(C)(C)NC(=O)[C@H](CCC(N)=O)NC(=O)[C@@H](NC(=O)[C@](C)(Cc1ccccc1)NC(=O)[C@H](CC(=O)O)NC(=O)[C@H](CCCNC(=N)N)NC(=O)[C@H](C)NC(=O)[C@H](C)NC(=O)[C@H](CCCCNC(=O)COCCOCCNC(=O)COCCOCCNC(=O)CC[C@H](NC(=O)CCCCCCCCCCCCCCCCC(=O)O)C(=O)O)NC(=O)[C@H](CO)NC(=O)[C@H](CC(=O)O)NC(=O)[C@H](CC(C)C)NC(=O)[C@](C)(Cc1ccccc1)NC(=O)[C@H](CCCCN)NC(=O)[C@H](CO)NC(=O)[C@@H](NC(=O)[C@H](CC(=O)O)NC(=O)[C@H](CO)NC(=O)[C@@H](NC(=O)[C@](C)(Cc1ccccc1)NC(=O)[C@H](CO)NC(=O)CNC(=O)[C@H](Cc1c[nH]cn1)NC(=O)C(C)(C)NC(=O)[C@@H](N)Cc1c[nH]cn1)[C@@H](C)O)C(C)C)C(C)C)C(=O)N[C@@H](C)C(=O)N[C@@H](CC(N)=O)C(=O)N[C@H](C(N)=O)[C@@H](C)O
B2: Peptide 12 (peptide)
peptide: H[Aib]HGS[αMeF]TSDVSK[αMeF]LDSK([AEEA-AEEA-γGlu-C18 diacid])AARDFVQ[Aib]IANT-NH2
modifications: N-terminus assumed
SMILES: CC[C@H](C)[C@H](NC(=O)C(C)(C)NC(=O)[C@H](CCC(N)=O)NC(=O)[C@@H](NC(=O)[C@H](Cc1ccccc1)NC(=O)[C@H](CC(=O)O)NC(=O)[C@H](CCCNC(=N)N)NC(=O)[C@H](C)NC(=O)[C@H](C)NC(=O)[C@H](CCCCNC(=O)COCCOCCNC(=O)COCCOCCNC(=O)CC[C@H](NC(=O)CCCCCCCCCCCCCCCCC(=O)O)C(=O)O)NC(=O)[C@H](CO)NC(=O)[C@H](CC(=O)O)NC(=O)[C@H](CC(C)C)NC(=O)[C@](C)(Cc1ccccc1)NC(=O)[C@H](CCCCN)NC(=O)[C@H](CO)NC(=O)[C@@H](NC(=O)[C@H](CC(=O)O)NC(=O)[C@H](CO)NC(=O)[C@@H](NC(=O)[C@](C)(Cc1ccccc1)NC(=O)[C@H](CO)NC(=O)CNC(=O)[C@H](Cc1c[nH]cn1)NC(=O)C(C)(C)NC(=O)[C@@H](N)Cc1c[nH]cn1)[C@@H](C)O)C(C)C)C(C)C)C(=O)N[C@@H](C)C(=O)N[C@@H](CC(N)=O)C(=O)N[C@H](C(N)=O)[C@@H](C)O
B3: Peptide 109 (peptide)
peptide: HSQGS[αMeF]TSDVSK(Ac)[Aib]LDSK([AEEA-AEEA-γGlu-C18 diacid])AAQD[αMeF]VQ[Aib]IAN-NH2
modifications: N-terminus assumed
SMILES: CC[C@H](C)[C@H](NC(=O)C(C)(C)NC(=O)[C@H](CCC(N)=O)NC(=O)[C@@H](NC(=O)[C@](C)(Cc1ccccc1)NC(=O)[C@H](CC(=O)O)NC(=O)[C@H](CCC(N)=O)NC(=O)[C@H](C)NC(=O)[C@H](C)NC(=O)[C@H](CCCCNC(=O)COCCOCCNC(=O)COCCOCCNC(=O)CC[C@H](NC(=O)CCCCCCCCCCCCCCCCC(=O)O)C(=O)O)NC(=O)[C@H](CO)NC(=O)[C@H](CC(=O)O)NC(=O)[C@H](CC(C)C)NC(=O)C(C)(C)NC(=O)[C@H](CCCCNC(C)=O)NC(=O)[C@H](CO)NC(=O)[C@@H](NC(=O)[C@H](CC(=O)O)NC(=O)[C@H](CO)NC(=O)[C@@H](NC(=O)[C@](C)(Cc1ccccc1)NC(=O)[C@H](CO)NC(=O)CNC(=O)[C@H](CCC(N)=O)NC(=O)[C@H](CO)NC(=O)[C@@H](N)Cc1c[nH]cn1)[C@@H](C)O)C(C)C)C(C)C)C(=O)N[C@@H](C)C(=O)N[C@@H](CC(N)=O)C(N)=O

These binders were tested against human glucagon receptor (human, UniProt P47871) (assay: cell-based or functional assay).

Row | cAMP production, hGluc-R EC50 (pM) | Binder
1 | 9.49 pM | H[Aib]QGS[αMeF]TSDVSK[Dip]LDSK([PEG2′-PEG2′-γGlu-Palmitoyl])AAQD[αMeF]VQ[Aib]IAN-NH2 [Peptide 67]
2 | 44 pM | B1
3 | 2.09 pM | HSQGS[αMeF]TSDVSKILDSKAAQD[αMeF]VQ[Aib]IAN-NH2 (not fully specified (residue 17)) [Peptide 111]
4 | 48.5 pM | HSQGS[αMeF]TSDVSK(Ac)[Aib]LDSK([(PEG)2-(PEG)2-γGlu-γGlu-Stearoyl])AAQD[αMeF]VQ[Aib]IAN-NH2 [Peptide 110]
5 | 10.7 pM | HSQGS[αMeF]TSDVSK[αMeF]LDSK([PEG2′-PEG2′-γGlu-γGlu-Palmitoyl])AAQD[αMeF]VQ[Aib]LEAGG-NH2 [Peptide 79]
6 | 8.46 pM | HSQGS[αMeF]TSDVSK[αMeF]LDSK([(PEG)2-(PEG)2-γGlu-γGlu-Palmitoyl])AAQD[αMeF]VQ[Aib]IAN-NH2 [Peptide 87]
7 | 1.2 pM | HSQGS[αMeF]TSDVSKILDSK([(PEG)2-(PEG)2-γGlu-Palmitoyl])AAQD[αMeF]VQ[Aib]IINT-NH2 [Peptide 121]
8 | 47.7 pM | B2
9 | 1.7 pM | HSQGS[αMeF]TSDVSKILDSK([(PEG)2-(PEG)2-γGlu-γGlu-Myristoyl])AAQD[αMeF]VQ[Aib]IINT-NH2 [Peptide 119]
10 | 1.2 pM | HSQGS[αMeF]TSDVSKILDSK([(PEG)2-(PEG)2-γGlu-γGlu-Palmitoyl])AAQD[αMeF]VQ[Aib]IINT-NH2 [Peptide 118]
11 | 3.06 pM | HSQGS[αMeF]TSDVSK[Dip]LDSK([PEG2′-PEG2′-γGlu-γGlu-Palmitoyl])AAQD[αMeF]VE[Aib]IINT-NH2 [Peptide 64]
12 | 33.2 pM | HSQGS[αMeF]TSDVSK[Aib]LDSK([(PEG)2-(PEG)2-γGlu-γGlu-Palmitoyl])AAQD[αMeF]VQ[Aib]IIE-NH2 [Peptide 99]
13 | 2060 pM | HSQGS[αMeF]TSDVSK[Dip]LDSK([PEG2-PEG2-γGlu-γGlu-C18 diacid])AAQD[αMeF]VE[Aib]IINT-NH2 [Peptide 65]
14 | 9.18 pM | HSQGS[αMeF]TSDVSK[αMeF]LDSKAAQD[αMeF]VQ[Aib]LEAGG-NH2 (not fully specified (residue 17)) [Peptide 80]
15 | > 26800 pM | B3
16 | 15.3 pM | HSQGS[αMeF]TSDVSK[αMeF]LDSK([PEG2′-PEG2′-γGlu-γGlu-Palmitoyl])AAQD[αMeF]VQ[Aib]IAN-NH2 (not fully specified) [Peptide 89]
17 | 15.2 pM | HSQGS[αMeF]TSDVSK[Dip]LDSK([(PEG)2-(PEG)2-γGlu-γGlu-Dodecyl])AAQD[αMeF]VE[Aib]IINT-NH2 [Peptide 62]
18 | 40.5 pM | HSQGS[αMeF]TSDVSK[Aib]LDSK([(PEG)2-(PEG)2-γGlu-γGlu-Stearoyl])AAQD[αMeF]VQ[Aib]IAN-NH2 [Peptide 100]
19 | 118 pM | H[Aib]HGS[αMeF]TSDVSK[αMeF]LDSK([AEEA-AEEA-γGlu-C18 diacid])AAQDFVQ[Aib]IANT-NH2 [Peptide 11]
20 | 73.7 pM | H[Aib]QGS[αMeF]TSDVSK[αMeF]LDSK([PEG4′-γGlu-γGlu-Palmitoyl])AAQD[αMeF]VE[Aib]LEAGG-NH2 [Peptide 72]
21 | 2.62 pM | HSQGS[αMeF]TSDVSKILDSK([(PEG)2-(PEG)2-γGlu-Stearoyl])AAQD[αMeF]VQ[Aib]IINT-NH2 [Peptide 120]
22 | 0.857 pM | HSQGS[αMeF]TSDVSKILDSK([(PEG)2-(PEG)2-γGlu-Myristoyl])AAQD[αMeF]VQ[Aib]IINT-NH2 [Peptide 122]
23 | 2.49 pM | HSQGS[αMeF]TSDVSK[Dip]LDSK([(PEG)2-(PEG)2-γGlu-γGlu-Myristoyl])AAQD[αMeF]VE[Aib]IINT-NH2 [Peptide 63]
24 | 6.47 pM | HSQGS[αMeF]TSDVSK[αMeF]LDSK([(PEG)2-(PEG)2-γGlu-γGlu-Heptadecanoyl])AAQD[αMeF]VQ[Aib]IAN-NH2 [Peptide 88]
25 | 9.55 pM | HSQGS[αMeF]TSDVSK[Dip]LDSK([(PEG)2-γGlu-(PEG)2-γGlu-Stearoyl])AAQD[αMeF]VE[Aib]IINT-NH2 [Peptide 61]

The binders below were run against human GLP-1 receptor (human, UniProt P43220) (assay: cell-based or functional assay).

Row | cAMP production, hGLP-1R EC50 (pM) | Binder
26 | 2.43 pM | H[Aib]QGS[αMeF]TSDVSK[Dip]LDSK([PEG2′-PEG2′-γGlu-Palmitoyl])AAQD[αMeF]VQ[Aib]IAN-NH2 [Peptide 67]
27 | 15.9 pM | B1
28 | 1.92 pM | HSQGS[αMeF]TSDVSKILDSKAAQD[αMeF]VQ[Aib]IAN-NH2 (not fully specified (residue 17)) [Peptide 111]
29 | 0.627 pM | HSQGS[αMeF]TSDVSK(Ac)[Aib]LDSK([(PEG)2-(PEG)2-γGlu-γGlu-Stearoyl])AAQD[αMeF]VQ[Aib]IAN-NH2 [Peptide 110]
30 | 1.73 pM | HSQGS[αMeF]TSDVSK[αMeF]LDSK([PEG2′-PEG2′-γGlu-γGlu-Palmitoyl])AAQD[αMeF]VQ[Aib]LEAGG-NH2 [Peptide 79]
31 | 1.29 pM | HSQGS[αMeF]TSDVSK[αMeF]LDSK([(PEG)2-(PEG)2-γGlu-γGlu-Palmitoyl])AAQD[αMeF]VQ[Aib]IAN-NH2 [Peptide 87]
32 | 1.5 pM | HSQGS[αMeF]TSDVSKILDSK([(PEG)2-(PEG)2-γGlu-Palmitoyl])AAQD[αMeF]VQ[Aib]IINT-NH2 [Peptide 121]
33 | 14.5 pM | B2
34 | 1.39 pM | HSQGS[αMeF]TSDVSKILDSK([(PEG)2-(PEG)2-γGlu-γGlu-Myristoyl])AAQD[αMeF]VQ[Aib]IINT-NH2 [Peptide 119]
35 | 1.07 pM | HSQGS[αMeF]TSDVSKILDSK([(PEG)2-(PEG)2-γGlu-γGlu-Palmitoyl])AAQD[αMeF]VQ[Aib]IINT-NH2 [Peptide 118]
36 | 2.57 pM | HSQGS[αMeF]TSDVSK[Dip]LDSK([PEG2′-PEG2′-γGlu-γGlu-Palmitoyl])AAQD[αMeF]VE[Aib]IINT-NH2 [Peptide 64]
37 | 2.21 pM | HSQGS[αMeF]TSDVSK[Aib]LDSK([(PEG)2-(PEG)2-γGlu-γGlu-Palmitoyl])AAQD[αMeF]VQ[Aib]IIE-NH2 [Peptide 99]
38 | 1230 pM | HSQGS[αMeF]TSDVSK[Dip]LDSK([PEG2-PEG2-γGlu-γGlu-C18 diacid])AAQD[αMeF]VE[Aib]IINT-NH2 [Peptide 65]
39 | 1.03 pM | HSQGS[αMeF]TSDVSK[αMeF]LDSKAAQD[αMeF]VQ[Aib]LEAGG-NH2 (not fully specified (residue 17)) [Peptide 80]
40 | 698 pM | B3
41 | 3.77 pM | HSQGS[αMeF]TSDVSK[αMeF]LDSK([PEG2′-PEG2′-γGlu-γGlu-Palmitoyl])AAQD[αMeF]VQ[Aib]IAN-NH2 (not fully specified) [Peptide 89]
42 | 10.1 pM | HSQGS[αMeF]TSDVSK[Dip]LDSK([(PEG)2-(PEG)2-γGlu-γGlu-Dodecyl])AAQD[αMeF]VE[Aib]IINT-NH2 [Peptide 62]
43 | 0.258 pM | HSQGS[αMeF]TSDVSK[Aib]LDSK([(PEG)2-(PEG)2-γGlu-γGlu-Stearoyl])AAQD[αMeF]VQ[Aib]IAN-NH2 [Peptide 100]
44 | 157 pM | H[Aib]HGS[αMeF]TSDVSK[αMeF]LDSK([AEEA-AEEA-γGlu-C18 diacid])AAQDFVQ[Aib]IANT-NH2 [Peptide 11]
45 | 3.42 pM | H[Aib]QGS[αMeF]TSDVSK[αMeF]LDSK([PEG4′-γGlu-γGlu-Palmitoyl])AAQD[αMeF]VE[Aib]LEAGG-NH2 [Peptide 72]
46 | 1.81 pM | HSQGS[αMeF]TSDVSKILDSK([(PEG)2-(PEG)2-γGlu-Stearoyl])AAQD[αMeF]VQ[Aib]IINT-NH2 [Peptide 120]
47 | 1.42 pM | HSQGS[αMeF]TSDVSKILDSK([(PEG)2-(PEG)2-γGlu-Myristoyl])AAQD[αMeF]VQ[Aib]IINT-NH2 [Peptide 122]
48 | 3.14 pM | HSQGS[αMeF]TSDVSK[Dip]LDSK([(PEG)2-(PEG)2-γGlu-γGlu-Myristoyl])AAQD[αMeF]VE[Aib]IINT-NH2 [Peptide 63]
49 | 1.04 pM | HSQGS[αMeF]TSDVSK[αMeF]LDSK([(PEG)2-(PEG)2-γGlu-γGlu-Heptadecanoyl])AAQD[αMeF]VQ[Aib]IAN-NH2 [Peptide 88]
50 | 4.12 pM | HSQGS[αMeF]TSDVSK[Dip]LDSK([(PEG)2-γGlu-(PEG)2-γGlu-Stearoyl])AAQD[αMeF]VE[Aib]IINT-NH2 [Peptide 61]
